Laboratory results as given in patent US12246067 (BIONTECH US, dated 2025).

Columns and labels:
HLA-A03.01 = target: T1, HLA-A03.01 (human); assay: peptide-HLA class I complex stability, method not described
T1 construct: The assay format and the HLA construct are not described

HLA-A11.01 = target: T2, HLA-A11.01 (human); assay: as above
T2 construct: The assay format and the HLA construct are not described

HLA-A02:01 [1] = target: T3, HLA-A02:01 (human); assay: measured peptide-HLA affinity; method not detailed
T3 construct: only the allele is given; also called HLA-A02:01 allele protein

HLA-A02:01 [2] = target: T3, HLA-A02:01; assay: measured peptide-HLA complex stability; method not detailed

Binder | Measured stability (HLA-A03.01) [h] | Measured stability (HLA-A11.01) [h] | Measured Affinity (HLA-A02:01 [1]) [nM] | Measured stability (HLA-A02:01 [2]) [h]
VVGACGVGK [KRAS, G12C peptide VVGACGVGK] | 5 | 10 | – | –
VVGADGVGK [KRAS, G12D peptide VVGADGVGK] | – | 3.4 | – | –
FLVVVGACGV [KRAS G12C affinity-enhanced peptide FLVVVGACGV] | – | – | 4.2 | 7.4
YLVVVGACGV [KRAS G12C affinity-enhanced peptide YLVVVGACGV] | – | – | 3.9 | 9.3
FMVVVGACGI [KRAS G12C affinity-enhanced peptide FMVVVGACGI] | – | – | 17 | 1
YMVVVGACGV [KRAS G12C affinity-enhanced peptide YMVVVGACGV] | – | – | 7 | 6.4
FMVVVGACGL [KRAS G12C affinity-enhanced peptide FMVVVGACGL] | – | – | 85.3 | 0.9
FLVVVGACGL [KRAS G12C affinity-enhanced peptide FLVVVGACGL] | – | – | 69.4 | 1.4
KMVVVGACGV [KRAS G12C affinity-enhanced peptide KMVVVGACGV] | – | – | 11.9 | 3.8
MMVVVGACGV [KRAS G12C affinity-enhanced peptide MMVVVGACGV] | – | – | 18.9 | 2.1
MLVVVGACGV [KRAS G12C affinity-enhanced peptide MLVVVGACGV] | – | – | 18.2 | 1.7
FLVVVGACGI [KRAS G12C affinity-enhanced peptide FLVVVGACGI] | – | – | 27.8 | 1.4
FMVVVGACGV [KRAS G12C affinity-enhanced peptide FMVVVGACGV] | – | – | 1.1 | 5.4
VVVGADGVGK [KRAS, G12D peptide VVVGADGVGK] | 2.3 | 13 | – | –
VVVGAVGVGK [KRAS, G12V peptide VVVGAVGVGK] | 6.7 | 24.3 | – | –
